This experiment addresses EBOV GP on EBOV-eGFP-Mayinga authentic virus (Ebola virus (EBOV), Mayinga) (UniProt Q05320). Kind of experiment: cell-based or functional assay.

Chain of EBOV GP on EBOV-eGFP-Mayinga authentic virus (Ebola virus (EBOV), Mayinga) (Q05320 33-676 limits assumed): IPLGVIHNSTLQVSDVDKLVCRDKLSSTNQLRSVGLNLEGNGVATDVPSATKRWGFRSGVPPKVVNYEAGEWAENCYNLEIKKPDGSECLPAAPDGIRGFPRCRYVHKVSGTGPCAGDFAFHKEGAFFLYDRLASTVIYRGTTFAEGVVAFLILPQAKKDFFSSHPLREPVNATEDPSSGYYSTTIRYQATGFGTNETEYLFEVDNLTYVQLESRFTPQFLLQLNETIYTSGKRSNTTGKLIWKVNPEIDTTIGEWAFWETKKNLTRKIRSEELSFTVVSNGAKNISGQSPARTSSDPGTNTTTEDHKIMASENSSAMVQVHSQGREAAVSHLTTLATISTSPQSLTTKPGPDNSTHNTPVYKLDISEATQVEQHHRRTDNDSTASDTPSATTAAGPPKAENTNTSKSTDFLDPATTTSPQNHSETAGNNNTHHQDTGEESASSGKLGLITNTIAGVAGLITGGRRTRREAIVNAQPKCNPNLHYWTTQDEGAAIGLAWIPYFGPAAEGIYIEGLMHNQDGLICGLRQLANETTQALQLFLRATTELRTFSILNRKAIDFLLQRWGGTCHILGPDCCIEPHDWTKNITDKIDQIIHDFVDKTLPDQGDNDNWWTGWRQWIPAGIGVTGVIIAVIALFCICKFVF

For CA45 (antibody), the IC50, EBOV-eGFP-Mayinga authentic virus neutralization test came to 8.51 µg/mL and the IC90, EBOV-eGFP-Mayinga authentic virus neutralization test turned out to be 13 µg/mL.
